Laboratory results taken from US20230002478A1.

Key:
Test in all cases: SPR
Details in all cases: remark: other sources report otherwise
[1] = molecular target: SARS-CoV-2 S RBD (K417N) (SARS-CoV-2), P0DTC2
[2] = molecular target: SARS-CoV-2 S RBD (Y453F) (SARS-CoV-2), P0DTC2
[3] = molecular target: SARS-CoV-2 S1 (HV69-70del, Y144del, N501Y, A570D, D614G, P681H) (SARS-CoV-2), P0DTC2
[4] = molecular target: SARS-CoV-2 S1 (D614G) (SARS-CoV-2), P0DTC2
[5] = molecular target: SARS-CoV-2 S RBD (N501Y) (SARS-CoV-2), P0DTC2

B1: 6-63 (Fc fusion)
chain: EVQLVESGGGLVQPGGSLRLSCAASGQTFNMGWFRQAPGKEREFVAAIGSGGSTSYADSVKGRFTISADNSKNTAYLQMNSLKPEDTAVYYCWRLGNDYFDYWGQGTLVTVSS
Work on B1 yielded a Kd [1] of 14 nM, a Kd [2] of 5.4 nM and a Kd [3] of 80 nM. The Kd [4] was 95 nM and the Kd [5] was 3.8 nM.
